From patent US20240352087A1

Experiments:
Test in all cases: HLA-binding assay
B*27:05 = target: B*27:05
A*29:02 = target: A*29:02
B*35:01 = target: B*35:01
B*40:01 = target: B*40:01

## E6 137-144
B*27:05
  IC50: 13 nM

## E5 65-73
A*29:02
  IC50: 444 nM

## E5 55-63
B*35:01
  IC50: 1.4 nM

## E6 81-90
B*40:01
  IC50: 0.54 nM

## E6 83-90
B*27:05
  IC50: 12 nM

## E6 52-61
B*35:01
  IC50: 51 nM
